# Experimental data from US20260027208A1 (published 2026).
# B1: TCR32 (TCR, V domains shown)
# Valpha: AQTVTQSQPEMSVQEAETVTLSCTYDTSENNYYLFWYKQPPSRQMILVIRQEAYKQQNATENRFSVNFQKAAKSFSLKISDSQLGDTAMYFCAFMTPITQGGSEKLVFGKGTKLTVNP
# Vbeta: ETGVTQSPTHLIKTRGQQVTLRCSSQSGHNTVSWYQQALGQGPQFIFQYYREEENGRGNFPPRFSGLQFPNYSSELNVNALELDDSALYLCASSDRGWNEQFFGPGTRLTVL
# B2: TCR69 (TCR, V domains shown)
# Valpha: TQLLEQSPQFLSIQEGENLTVYCNSSSVFSSLQWYRQEPGEGPVLLVTVVTGGEVKKLKRLTFQFGDARKDSSLHITAAQPGDTGLYLCAGKTTDSWGKLQFGAGTQVVVTP
# Vbeta: EPEVTQTPSHQVTQMGQEVILRCVPISNHLYFYWYRQILGQKVEFLVSFYNNEISEKSEIFDDQFSVERPDGSNFTLKIRSTKLEDSAMYFCASSEWAGTEAFFGQGTRLTVV
# B3: TCR80 (TCR, V domains shown)
# Valpha: AQTVTQSQPEMSVQEAETVTLSCTYDTSESDYYLFWYKQPPSRQMILVIRQEAYKQQNATENRFSVNFQKAAKSFSLKISDSQLGDAAMYFCASTLSSGDKLTFGTGTRLAVRP
# Vbeta: EPEVTQTPSHQVTQMGQEVILRCVPISNHLYFYWYRQILGQKVEFLVSFYNNEISEKSEIFDDQFSVERPDGSNFTLKIRSTKLEDSAMYFCASSGVDRAYGYTFGSGTRLTVV
# B4: TCR79 (TCR, V domains shown)
# Valpha: QKEVEQNSGPLSVPEGAIASLNCTYSDRVSQSFFWYRQYSGKSPELIMSIYSNGDKEDGRFTAQLNKASQYVSLLIRDSQPSDSATYLCAVRWAGGTSYGKLTFGQGTILTVHP
# Vbeta: DTGVSQDPRHKITKRGQNVTFRCDPISEHNRLYWYRQTLGQGPEFLTYFQNEAQLEKSRLLSDRFSAERPKGSFSTLEIQRTEQGDSAMYLCATPLGRTNEQFFGPGTRLTVL
# B5: TCR81 (TCR, V domains shown)
# Valpha: AQTVTQSQPEMSVQEAETVTLSCTYDTSESDYYLFWYKQPPSRQMILVIRQEAYKQQNATENRFSVNFQKAAKSFSLKISDSQLGDAAMYFCAYCNPNAGKSTFGDGTTLTVKP
# Vbeta: DVKVTQSSRYLVKRTGEKVFLECVQDMDHENMFWYRQDPGLGLRLIYFSYDVKMKEKGDIPEGYSVSREKKERFSLILESASTNQTSMYLCASSFRLREGLGEQFFGPGTRLTVL
# B6: TCR4 (TCR, V domains shown)
# Valpha: QKEVEQDPGPLSVPEGAIVSLNCTYSNSAFQYFMWYRQYSRKGPELLMYTYSSGNKEDGRFTAQVDKSSKYISLFIRDSQPSDSATYLCAMGALNSGAGSYQLTFGKGTKLSVIP
# Vbeta: KAGVTQTPRYLIKTRGQQVTLSCSPISGHRSVSWYQQTPGQGLQFLFEYFSETQRNKGNFPGRFSGRQFSNSRSEMNVSTLELGDSALYLCASSLSSGTGTEAFFGQGTRLTVE
# B7: TCR2 (TCR, V domains shown)
# Valpha: AQTVTQSQPEMSVQEAETVTLSCTYDTSENNYYLFWYKQPPSRQMILVIRQEAYKQQNATENRFSVNFQKAAKSFSLKISDSQLGDTAMYFCAFMYPSQGGSEKLVFGKGMKLTVNP
# Vbeta: ETGVTQSPTHLIKTRGQQVTLRCSSQSGHNTVSWYQQALGQGPQFIFQYYREEENGRGNFPPRFSGLQFPNYSSELNVNALELDDSALYLCASSSPGFRSYGYTFGSGTRLTVV
# B8: TCR91 (TCR, V domains shown)
# Valpha: AQKVTQAQTEISVVEKEDVTLDCVYETRDTTYYLFWYKQPPSGELVFLIRRNSFDEQNEISGRYSWNFQKSTSSFNFTITASQVVDSAVYFCALNEGGGSTLGRLYFGRGTQLTVWP
# Vbeta: DAMVIQNPRYQVTQFGKPVTLSCSQTLNHNVMYWYQQKSSQAPKLLFHYYDKDFNNEADTPDNFQSRRPNTSFCFLDIRSPGLGDAAMYLCATSTGRVYQPQHFGDGTRLSIL
# B9: TCR5 (TCR, V domains shown)
# Valpha: GEDVEQSLFLSVREGDSSVINCTYTDSSSTYLYWYKQEPGAGLQLLTYIFSNMDMKQDQRLTVLLNKKDKHLSLRIADTQTGDSAIYFCAERDAGNNRKLIWGLGTSLAVNP
# Vbeta: GAGVSQSPRYKVAKRGQDVALRCDPISGHVSLFWYQQALGQGPEFLTYFQNEAQLDKSGLPSDRFFAERPEGSVSTLKIQRTQQEDSAVYLCASSLEGGDTQYFGPGTRLTVL
# Biological target: T1, KRAS G12D peptide on HLA-A*11:01 (human)
# T1 peptide: VVVGADGVGK
# Test: killing
# Experimental: Red fluorescent Hpaf-II cells, a KRAS-G12D expressing tumor cell line transduced to express HLA-A11, were cocultured at 3:1 effector:target cell ratio with TCR32-transduced CD8⁺ T cells having wild type TRAC and TRBC loci or TCR32-transduced TRAC/TRBC double knockout (dKO) CD8⁺ T cells. Total red object integrated intensity (a measure of tumor cell volume) was evaluated over time. Red fluorescence was measured by live cell imaging using a life cell analysis system, the IncuCyte S3 microscope and software package. CD8⁺ T cell cytotoxicity is indicated by a decrease in the total red target cell area per well as compared to no treatment wells. Additional tumor cells were added at 72 and 140 hours to assess TCR-mediated tumor cell lysis by transduced T cells in the presence of persistent antigen. Reductions in tumor cells were observed when co-cultured with TCR-transduced cells (FIG. 2).
row,Binder,binding result
1,B1,recognises

# Biological target: T1, KRAS G12D peptide on HLA-A*11:01
# Test: activation reporter or marker
row,Binder,binding result
1,B2,recognises
2,B3,recognises
3,B4,recognises
4,B5,recognises

# Biological target: T1, KRAS G12D peptide on HLA-A*11:01
# Test: CD137 by flow cytometry; transduced primary CD4+ and CD8+ T cells, TRAC/TRBC wild type; G12D peptide titrated (FIG. 3C); full-length, on cells
# Experimental: (§1) Primary CD4+ and CD8+ T cells were transduced with a KRAS-G12D-specific T cell receptor (TCR69, TCR79, TCR80, TCR81, or TCR91), and were either edited to knockout TRAC and TRBC or left with unmodified TRAC and TRBC genes, and expanded for several days. Engineered T cells were incubated with G12D peptide at decreasing concentrations and T cell responses were assessed by measuring CD137 expression.
# (§2) In additional experiments, the effect of TRAC and TRBC knockout was evaluated for primary CD4+ and CD8+ T cells transduced with further KRAS-G12D-specific TCRs. The double knockout improved TCR avidity for multiple TCRs as shown in FIG. 3C (corresponding EC50 values in TABLE 2 and Cmax values in TABLE 3), FIG. 3D (corresponding EC50 values in TABLE 4), and FIG. 3E (corresponding EC50 values in TABLE 5).
row,Binder,EC50 of peptide [nM]
1,B6,49.8
2,B7,31.6
3,B8,131
4,B9,36.3

# Biological target: T1, KRAS G12D peptide on HLA-A*11:01
# Test: CD137 by flow cytometry; transduced primary CD4+ and CD8+ T cells, TRAC/TRBC wild type; G12D peptide titrated (FIG. 3D); full-length, on cells
# Experimental: as §1, §2
row,Binder,EC50 of peptide [nM]
1,B6,31.1
2,B7,22.2
3,B8,179
4,B9,37.8

# Biological target: T1, KRAS G12D peptide on HLA-A*11:01
# Test: CD137 by flow cytometry; transduced primary CD4+ and CD8+ T cells, TRAC/TRBC wild type; G12D peptide titrated (FIG. 3E); full-length, on cells
# Experimental: as §1, §2
row,Binder,EC50 of peptide [nM]
1,B6,49.8
2,B7,31.6
3,B8,131
4,B9,36.3

# Biological target: T1, KRAS G12D peptide on HLA-A*11:01
# Test: CD137 by flow cytometry; transduced primary CD4+ and CD8+ T cells, TRAC/TRBC double knockout; G12D peptide titrated (FIG. 3C); full-length, on cells
# Experimental: as §1, §2
row,Binder,EC50 of peptide [nM]
1,B6,11.8
2,B7,10.1
3,B8,36.5
4,B9,7.6

# Biological target: T1, KRAS G12D peptide on HLA-A*11:01
# Test: CD137 by flow cytometry; transduced primary CD4+ and CD8+ T cells, TRAC/TRBC double knockout; G12D peptide titrated (FIG. 3D); full-length, on cells
# Experimental: as §1, §2
row,Binder,EC50 of peptide [nM]
1,B6,4.4
2,B7,7.3
3,B8,14.4
4,B9,9.4

# Biological target: T1, KRAS G12D peptide on HLA-A*11:01
# Test: CD137 by flow cytometry; transduced primary CD4+ and CD8+ T cells, TRAC/TRBC double knockout; G12D peptide titrated (FIG. 3E); full-length, on cells
# Experimental: as §1, §2
row,Binder,EC50 of peptide [nM]
1,B6,11.8
2,B7,10.1
3,B8,36.5
4,B9,7.6

# Biological target: T1, KRAS G12D peptide on HLA-A*11:01
# Test: CD137 by flow cytometry; transduced primary CD4+ and CD8+ T cells without knockout of TRAC and TRBC; G12D peptide titrated (FIG. 3C); full-length, on cells
# Experimental: as §1, §2
row,Binder,Cmax [%]
1,B6,16
2,B7,42.7
3,B8,14.4
4,B9,23.9
